Reference: patent US20160304570A1
Read-outs that look alike come from different tables or passages of the source. Non-standard residues stand in square brackets, D forms with d. Groups on a side chain read outwards from the residue. Primed or numbered codes have the meaning given here. No end group written: not given here. *: point of attachment. X2 = ((2-hydroxyethyl)thio)acetamide, O=C(CSCCO)*; PEG11′ = not defined here; Nva = CCC[C@H](N)C(=O)O; Abu = CC[C@H](N)C(=O)O; Atz = not defined here

What was measured:
Assay in all cases: cell-based or functional assay
[1] = molecular target: human Nav1.3 voltage-gated sodium channel (human) (UniProt Q9NY46)
[2] = molecular target: human Nav1.5 voltage-gated sodium channel (human) (UniProt Q14524)
[3] = molecular target: human Nav1.7 voltage-gated sodium channel (human) (UniProt Q15858)
[4] = molecular target: human voltage-gated sodium channel Nav1.5 (human) (UniProt Q14524)
[5] = molecular target: human voltage-gated sodium channel Nav1.7 (human) (UniProt Q15858)
[6] = molecular target: human voltage-gated sodium channel Nav1.3 (human) (UniProt Q9NY46)
[7] = molecular target: human voltage-gated sodium channel Nav1.5 (human) (UniProt Q14524); remark: listed apart in the source
[8] = molecular target: human voltage-gated sodium channel Nav1.7 (human) (UniProt Q15858); remark: listed apart in the source
[9] = molecular target: human voltage-gated sodium channel Nav1.4 (human) (UniProt P35499)
[10] = molecular target: human voltage-gated sodium channel Nav1.4 (human) (UniProt P35499); remark: listed apart in the source

human voltage-gated sodium channel Nav1.3 (human), sequence (Q9NY46 whole entry): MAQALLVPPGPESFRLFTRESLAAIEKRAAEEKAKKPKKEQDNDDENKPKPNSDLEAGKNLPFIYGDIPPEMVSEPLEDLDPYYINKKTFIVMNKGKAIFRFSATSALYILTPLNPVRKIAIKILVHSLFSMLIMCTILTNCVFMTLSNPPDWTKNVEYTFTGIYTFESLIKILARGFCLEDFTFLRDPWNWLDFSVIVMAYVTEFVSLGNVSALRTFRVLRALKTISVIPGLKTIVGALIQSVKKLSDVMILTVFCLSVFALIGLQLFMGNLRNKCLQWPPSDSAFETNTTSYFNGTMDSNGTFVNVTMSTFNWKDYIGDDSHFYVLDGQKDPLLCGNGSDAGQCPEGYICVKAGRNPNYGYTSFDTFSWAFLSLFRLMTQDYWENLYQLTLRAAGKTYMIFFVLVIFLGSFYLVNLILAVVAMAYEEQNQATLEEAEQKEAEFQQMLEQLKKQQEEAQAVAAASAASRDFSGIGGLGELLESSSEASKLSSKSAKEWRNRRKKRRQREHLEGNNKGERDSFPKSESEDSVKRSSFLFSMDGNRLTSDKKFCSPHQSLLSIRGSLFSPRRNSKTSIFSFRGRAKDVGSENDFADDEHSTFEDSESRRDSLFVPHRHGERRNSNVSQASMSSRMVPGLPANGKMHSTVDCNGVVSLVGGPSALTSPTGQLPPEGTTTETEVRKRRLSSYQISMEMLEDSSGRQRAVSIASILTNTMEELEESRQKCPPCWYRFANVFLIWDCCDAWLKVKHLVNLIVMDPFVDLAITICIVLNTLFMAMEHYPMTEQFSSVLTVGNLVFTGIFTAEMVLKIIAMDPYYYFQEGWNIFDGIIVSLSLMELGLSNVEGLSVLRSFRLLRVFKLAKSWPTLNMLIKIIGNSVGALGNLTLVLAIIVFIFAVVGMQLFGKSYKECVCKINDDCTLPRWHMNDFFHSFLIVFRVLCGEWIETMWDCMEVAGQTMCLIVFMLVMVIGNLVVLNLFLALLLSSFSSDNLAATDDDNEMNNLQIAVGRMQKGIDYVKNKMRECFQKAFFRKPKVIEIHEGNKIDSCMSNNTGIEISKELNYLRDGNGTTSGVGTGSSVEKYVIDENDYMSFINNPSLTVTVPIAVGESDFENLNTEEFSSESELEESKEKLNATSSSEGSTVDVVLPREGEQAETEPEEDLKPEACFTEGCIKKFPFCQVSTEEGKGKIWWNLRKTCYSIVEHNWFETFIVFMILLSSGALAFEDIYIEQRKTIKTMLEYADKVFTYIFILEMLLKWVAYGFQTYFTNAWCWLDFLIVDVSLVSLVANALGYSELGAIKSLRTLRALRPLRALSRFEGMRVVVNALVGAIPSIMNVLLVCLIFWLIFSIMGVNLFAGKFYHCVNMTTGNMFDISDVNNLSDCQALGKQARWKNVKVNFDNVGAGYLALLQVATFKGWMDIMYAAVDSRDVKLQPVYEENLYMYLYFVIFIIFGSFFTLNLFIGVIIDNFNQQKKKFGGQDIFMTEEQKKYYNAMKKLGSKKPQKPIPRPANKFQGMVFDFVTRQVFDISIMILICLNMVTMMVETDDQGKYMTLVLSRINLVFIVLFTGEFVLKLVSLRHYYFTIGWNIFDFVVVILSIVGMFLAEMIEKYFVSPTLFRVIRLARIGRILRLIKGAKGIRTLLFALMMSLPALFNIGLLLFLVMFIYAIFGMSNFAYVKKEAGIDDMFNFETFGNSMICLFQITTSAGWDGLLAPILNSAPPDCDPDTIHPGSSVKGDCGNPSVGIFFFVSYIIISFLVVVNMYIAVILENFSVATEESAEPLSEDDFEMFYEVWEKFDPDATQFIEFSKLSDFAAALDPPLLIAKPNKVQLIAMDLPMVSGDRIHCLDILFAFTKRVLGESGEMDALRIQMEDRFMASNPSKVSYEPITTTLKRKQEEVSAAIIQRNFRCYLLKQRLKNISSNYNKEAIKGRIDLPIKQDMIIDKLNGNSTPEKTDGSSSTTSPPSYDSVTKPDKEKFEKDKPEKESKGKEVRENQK
human Nav1.3 voltage-gated sodium channel (human), sequence (Q9NY46 whole entry): as above
human Nav1.5 voltage-gated sodium channel (human), sequence (Q14524 whole entry): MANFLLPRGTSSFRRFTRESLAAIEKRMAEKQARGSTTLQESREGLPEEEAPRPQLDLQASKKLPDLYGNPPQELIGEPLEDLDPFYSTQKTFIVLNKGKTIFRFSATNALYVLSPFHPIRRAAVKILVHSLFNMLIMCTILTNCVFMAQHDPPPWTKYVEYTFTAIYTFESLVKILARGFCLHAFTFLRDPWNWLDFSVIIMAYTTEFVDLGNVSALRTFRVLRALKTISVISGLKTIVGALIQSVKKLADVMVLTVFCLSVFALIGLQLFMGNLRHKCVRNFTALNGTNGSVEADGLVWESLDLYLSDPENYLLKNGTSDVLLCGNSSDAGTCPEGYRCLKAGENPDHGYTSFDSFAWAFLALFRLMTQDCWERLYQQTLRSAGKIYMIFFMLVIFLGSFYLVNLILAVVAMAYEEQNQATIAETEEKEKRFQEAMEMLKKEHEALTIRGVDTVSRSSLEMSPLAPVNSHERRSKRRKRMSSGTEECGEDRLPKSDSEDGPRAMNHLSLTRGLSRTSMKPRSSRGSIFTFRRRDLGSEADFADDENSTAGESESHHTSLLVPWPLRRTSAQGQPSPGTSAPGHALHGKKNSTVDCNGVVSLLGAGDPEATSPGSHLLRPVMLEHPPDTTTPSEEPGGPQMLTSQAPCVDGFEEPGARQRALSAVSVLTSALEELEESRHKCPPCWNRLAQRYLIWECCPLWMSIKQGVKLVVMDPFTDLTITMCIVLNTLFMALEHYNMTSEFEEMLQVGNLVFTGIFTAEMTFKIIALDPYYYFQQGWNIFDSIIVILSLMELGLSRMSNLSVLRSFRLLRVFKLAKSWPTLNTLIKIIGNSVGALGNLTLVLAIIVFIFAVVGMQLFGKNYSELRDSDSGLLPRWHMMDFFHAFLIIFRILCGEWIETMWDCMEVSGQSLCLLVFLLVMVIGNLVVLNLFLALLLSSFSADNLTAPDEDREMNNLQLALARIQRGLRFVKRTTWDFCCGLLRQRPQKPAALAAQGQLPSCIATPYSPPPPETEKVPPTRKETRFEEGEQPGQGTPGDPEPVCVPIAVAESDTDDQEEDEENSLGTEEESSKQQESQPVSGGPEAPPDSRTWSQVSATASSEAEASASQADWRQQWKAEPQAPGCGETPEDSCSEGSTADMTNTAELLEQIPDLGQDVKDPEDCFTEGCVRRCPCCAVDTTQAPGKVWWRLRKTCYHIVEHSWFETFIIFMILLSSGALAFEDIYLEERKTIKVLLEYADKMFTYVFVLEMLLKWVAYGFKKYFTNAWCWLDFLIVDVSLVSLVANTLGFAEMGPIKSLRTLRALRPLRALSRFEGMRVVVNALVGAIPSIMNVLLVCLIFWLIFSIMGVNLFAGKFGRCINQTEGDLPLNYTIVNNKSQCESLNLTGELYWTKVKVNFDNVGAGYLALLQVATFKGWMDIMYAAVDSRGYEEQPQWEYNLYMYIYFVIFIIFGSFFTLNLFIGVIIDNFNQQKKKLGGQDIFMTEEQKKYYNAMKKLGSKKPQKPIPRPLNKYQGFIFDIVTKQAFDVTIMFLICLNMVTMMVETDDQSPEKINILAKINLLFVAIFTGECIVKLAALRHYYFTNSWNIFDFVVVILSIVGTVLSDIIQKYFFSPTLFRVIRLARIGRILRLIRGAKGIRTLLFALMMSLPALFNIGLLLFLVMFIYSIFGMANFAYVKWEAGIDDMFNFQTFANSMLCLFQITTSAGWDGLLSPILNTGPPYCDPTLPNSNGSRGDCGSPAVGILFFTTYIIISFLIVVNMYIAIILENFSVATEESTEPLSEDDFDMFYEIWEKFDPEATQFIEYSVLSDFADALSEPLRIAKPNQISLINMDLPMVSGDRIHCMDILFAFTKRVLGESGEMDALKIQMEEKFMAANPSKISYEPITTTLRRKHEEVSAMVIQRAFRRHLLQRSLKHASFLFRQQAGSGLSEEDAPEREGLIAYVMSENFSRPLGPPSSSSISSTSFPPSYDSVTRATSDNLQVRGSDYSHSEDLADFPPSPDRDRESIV

[2-Abu5;Leu6;K(4-Pen)13;Arg28]GpTx-1(1-34) (peptide)
IWQ Use Nav1.3 IC50 (IonWorks Quattro electrophysiology) [1]: 0.81 µM
IWQ Use Nav1.5 IC50 (IonWorks Quattro electrophysiology) [2]: 39.7 µM
IWQ Use Nav1.7 IC50 (IonWorks Quattro electrophysiology) [3]: 0.55 µM
Nav1.5 Use IC50 (µM), electrophysiology by PatchXpress [4]: > 10 µM
Nav1.7 Use IC50 (µM), electrophysiology by PatchXpress [5]: 0.002 µM

[Ala5;Phe6;Gln13;Arg28]GpTx-1(1-34)-FreeAcid (peptide)
IWQ Use Nav1.3 IC50 [6]: 1700 nM

[Ala5;Phe6;Thr13;Arg28]GpTx-1(1-34)-FreeAcid (peptide)
IWQ Use Nav1.3 IC50 [6]: 1300 nM

4-Pen-[Ala5;Phe6;2-Abu13;Arg28]GpTx-1(1-34) (peptide)
IWQ Use Nav1.3 IC50 (IonWorks Quattro electrophysiology) [6]: 0.26 µM
IWQ Use Nav1.5 IC50 (IonWorks Quattro electrophysiology) [7]: 44.4 µM
IWQ Use Nav1.7 IC50 (IonWorks Quattro electrophysiology) [8]: 0.18 µM
Nav1.5 Use IC50 (µM), electrophysiology by PatchXpress [4]: > 10 µM
Nav1.7 Use IC50 (µM), electrophysiology by PatchXpress [5]: 0.004 µM

[Ala5;Phe6;Met13;Arg28]GpTx-1(1-34)-FreeAcid (peptide)
IWQ Use Nav1.3 IC50 [6]: 800 nM
IWQ Use Nav1.7 IC50 [8]: 4700 nM

4-Pen-[2-Abu5,13;Leu6;Arg28]GpTx-1(1-34) (peptide)
IWQ Use Nav1.3 IC50 (IonWorks Quattro electrophysiology) [1]: 0.9 µM
IWQ Use Nav1.5 IC50 (IonWorks Quattro electrophysiology) [2]: 36.8 µM
IWQ Use Nav1.7 IC50 (IonWorks Quattro electrophysiology) [3]: 0.54 µM
Nav1.5 Use IC50 (µM), electrophysiology by PatchXpress [4]: > 10 µM
Nav1.7 Use IC50 (µM), electrophysiology by PatchXpress [5]: 0.003 µM

4-Pen-[Nva5;Leu6;2-Abu13;Arg28]GpTx-1(1-34) (peptide)
IWQ Use Nav1.3 IC50 (IonWorks Quattro electrophysiology) [6]: 0.23 µM
IWQ Use Nav1.5 IC50 (IonWorks Quattro electrophysiology) [7]: 46.2 µM
IWQ Use Nav1.7 IC50 (IonWorks Quattro electrophysiology) [8]: 0.1 µM

[Ala5;Phe6;Glu13;Arg28]GpTx-1(1-34)-FreeAcid (peptide)
IWQ Use Nav1.3 IC50 [6]: 1900 nM

[Ala5;Phe6;Ile13;Arg28]GpTx-1(1-34)-FreeAcid (peptide)
IWQ Use Nav1.3 IC50 [6]: 3000 nM

[Ala5;Phe6,13;Arg28]GpTx-1(1-34)-FreeAcid (peptide)
IWQ Use Nav1.3 IC50 [6]: 1200 nM

[Ala5;Phe6;Lys13;Arg28]GpTx-1(1-34)-FreeAcid (peptide)
IWQ Use Nav1.3 IC50 [6]: 300 nM
IWQ Use Nav1.5 IC50 [7]: 2800 nM
IWQ Use Nav1.7 IC50 [8]: 3600 nM

[Ala5;Phe6;Glu10;K(Biotin)13;Leu26;Arg28]GpTx-1(1-34) (peptide)
Nav1.4 Use IC50 (µM), PatchXpress electrophysiology [9]: 7.13 µM
Nav1.5 Use IC50 (µM), PatchXpress electrophysiology [4]: > 10 µM
Nav1.7 Use IC50 (µM), PatchXpress electrophysiology [5]: 0.015 µM

[2-Abu5,Leu6,K(ethyl-triazole-PEG11-((2-hydroxyethyl)thio)acetamide)13,Arg28]GpTx-1(1-34) (peptide)
Nav1.4 Use IC50 (PatchXpress electrophysiology, inhibition of sodium current) [9]: 9.88 µM
Nav1.5 Use IC50 (PatchXpress electrophysiology, inhibition of sodium current) [4]: > 10 µM
Nav1.7 Use IC50 (PatchXpress electrophysiology, inhibition of sodium current) [5]: 0.018 µM

[Ala5;Phe6;Leu13;Arg28]GpTx-1(1-34)-FreeAcid (peptide)
IWQ Use Nav1.3 IC50 [6]: 4500 nM
IWQ Use Nav1.7 IC50 [8]: 4500 nM

[Ala5;Phe6;Pro13;Arg28]GpTx-1(1-34)-FreeAcid (peptide)
IWQ Use Nav1.3 IC50 [6]: 2900 nM
IWQ Use Nav1.7 IC50 [8]: 2900 nM

Biotin-Ahx-[2-Abu5,13;Leu6;Arg28]GpTx-1(1-34) (peptide)
Nav1.4 Use IC50 (µM), PatchXpress electrophysiology [9]: 27.3 µM
Nav1.5 Use IC50 (µM), PatchXpress electrophysiology [4]: > 10 µM
Nav1.7 Use IC50 (µM), PatchXpress electrophysiology [5]: 0.011 µM

[Ala5;Leu6,26;Pra13;Arg28]GpTx-1(1-34) (peptide)
IWQ Use Nav1.3 IC50 (IonWorks Quattro electrophysiology) [1]: 0.48 µM
IWQ Use Nav1.5 IC50 (IonWorks Quattro electrophysiology) [2]: 36.4 µM
IWQ Use Nav1.7 IC50 (IonWorks Quattro electrophysiology) [3]: 0.22 µM
Nav1.5 Use IC50 (µM), electrophysiology by PatchXpress [4]: > 10 µM
Nav1.7 Use IC50 (µM), electrophysiology by PatchXpress [5]: 0.009 µM

[Ala5;Phe6;Ser13;Arg28]GpTx-1(1-34)-FreeAcid (peptide)
IWQ Use Nav1.3 IC50 [6]: 1100 nM

[Ala5;Phe6;Arg13,28]GpTx-1(1-34)-FreeAcid (peptide)
IWQ Use Nav1.3 IC50 [6]: 600 nM
IWQ Use Nav1.7 IC50 [8]: 4500 nM

[Ala5;Phe6;Gly13;Arg28]GpTx-1(1-34)-FreeAcid (peptide)
IWQ Use Nav1.3 IC50 [6]: 1500 nM

[Ala5;Phe6;Glu10;Atz(PEG11-((2-hydroxyethyl)thio)acetamide)13;Leu26;Arg28]GpTx-1(1-34) (peptide)
Nav1.4 Use IC50 (PatchXpress electrophysiology, inhibition of sodium current) [9]: > 10 µM
Nav1.5 Use IC50 (PatchXpress electrophysiology, inhibition of sodium current) [4]: > 10 µM
Nav1.7 Use IC50 (PatchXpress electrophysiology, inhibition of sodium current) [5]: 0.021 µM

[Ala5;Phe6;Pra12;Leu26;Arg28]GpTx-1(1-34) (peptide)
IWQ Use Nav1.3 IC50 (IonWorks Quattro electrophysiology) [1]: 0.12 µM
IWQ Use Nav1.5 IC50 (IonWorks Quattro electrophysiology) [2]: 36.5 µM
IWQ Use Nav1.7 IC50 (IonWorks Quattro electrophysiology) [3]: 0.13 µM

[Ala5;Phe6;Glu10;Atz(PEG3-((2-hydroxyethyl)thio)acetamide)13;Leu26;Arg28]GpTx-1(1-34) (peptide)
Nav1.4 Use IC50 (PatchXpress electrophysiology, inhibition of sodium current) [9]: 5.95 µM
Nav1.5 Use IC50 (PatchXpress electrophysiology, inhibition of sodium current) [4]: > 10 µM
Nav1.7 Use IC50 (PatchXpress electrophysiology, inhibition of sodium current) [5]: 0.013 µM

[Ala5;Leu6,26;Pra12;Arg28]GpTx-1(1-34) (peptide)
IWQ Use Nav1.3 IC50 (IonWorks Quattro electrophysiology) [1]: 0.54 µM
IWQ Use Nav1.5 IC50 (IonWorks Quattro electrophysiology) [2]: > 50 µM
IWQ Use Nav1.7 IC50 (IonWorks Quattro electrophysiology) [3]: 0.26 µM

((2-Hydroxyethyl)thio)acetamide-NPEG11-triazole-[2-Abu5,13;Leu6;Arg28]GpTx-1(1-34) (peptide)
Nav1.4 Use IC50 (PatchXpress electrophysiology, inhibition of sodium current) [9]: > 10 µM
Nav1.5 Use IC50 (PatchXpress electrophysiology, inhibition of sodium current) [4]: > 10 µM
Nav1.7 Use IC50 (PatchXpress electrophysiology, inhibition of sodium current) [5]: 0.087 µM

[Ala5;Phe6;Val13;Arg28]GpTx-1(1-34)-FreeAcid (peptide)
IWQ Use Nav1.3 IC50 [6]: 1700 nM

[Ala5;Phe6;Asp13;Arg28]GpTx-1(1-34)-FreeAcid (peptide)
IWQ Use Nav1.3 IC50 [6]: 2300 nM

[Ala5;Phe6;Glu10;Pra13;Leu26;Arg28]GpTx-1(1-34) (peptide)
IWQ Use Nav1.3 IC50 (IonWorks Quattro electrophysiology) [1]: 0.56 µM
IWQ Use Nav1.5 IC50 (IonWorks Quattro electrophysiology) [2]: 32.2 µM
IWQ Use Nav1.7 IC50 (IonWorks Quattro electrophysiology) [3]: 0.54 µM
Nav1.5 Use IC50 (µM), electrophysiology by PatchXpress [4]: 15.3 µM
Nav1.7 Use IC50 (µM), electrophysiology by PatchXpress [5]: 0.012 µM

[Nva5;Leu6;K(4-Pen)13;Arg28]GpTx-1(1-34) (peptide)
IWQ Use Nav1.3 IC50 (IonWorks Quattro electrophysiology) [1]: 0.27 µM
IWQ Use Nav1.5 IC50 (IonWorks Quattro electrophysiology) [2]: 37.5 µM
IWQ Use Nav1.7 IC50 (IonWorks Quattro electrophysiology) [3]: 0.31 µM

DCLGALRKCIPDHDKCCRPNLVCSRTHRWCKYVF-OH (ends and bridges not checked) [[Ala5;Leu6;His13;Arg28]GpTx-1(1-34)-FreeAcid]
IWQ Use Nav1.3 [6]: 3.9 µM
IWQ Use Nav1.4 [10]: > 5 µM
IWQ Use Nav1.5 [7]: > 5 µM
IWQ Use Nav1.7 [8]: > 5 µM

D[Abu]LGALRKCIPDNDKC[Abu]RPNLVCSRTHEWCKYVF (ends and bridges not checked) [[2-Abu2,17;Ala5;Leu6;Glu28]GpTx-1(1-34)]
IWQ Use Nav1.3 (µM) (IC50, IonWorks Quattro population patch clamp) [6]: > 5 µM
IWQ Use Nav1.4 (µM) (IC50, IonWorks Quattro population patch clamp) [10]: > 50 µM
IWQ Use Nav1.5 (µM) (IC50, IonWorks Quattro population patch clamp) [7]: > 50 µM
IWQ Use Nav1.7 (µM) (IC50, IonWorks Quattro population patch clamp) [8]: 4.3 µM

D[Abu]LG[Abu]LRKCIPDNDKC[Abu]RPNLVCSRTHEWCKYVF (ends and bridges not checked) [[2-Abu2,5,17;Leu6;Glu28]GpTx-1(1-34)]
IWQ Use Nav1.3 (µM) (IC50, IonWorks Quattro population patch clamp) [6]: > 5 µM
IWQ Use Nav1.4 (µM) (IC50, IonWorks Quattro population patch clamp) [10]: > 50 µM
IWQ Use Nav1.5 (µM) (IC50, IonWorks Quattro population patch clamp) [7]: > 50 µM
IWQ Use Nav1.7 (µM) (IC50, IonWorks Quattro population patch clamp) [8]: 4.3 µM

D[Abu]LGVLRKCIPDNDKC[Abu]RPNLVCSRTHEWCKYVF (ends and bridges not checked) [[2-Abu2,17;Val5;Leu6;Glu28]GpTx-1(1-34)]
IWQ Use Nav1.3 (µM) (IC50, IonWorks Quattro population patch clamp) [6]: > 5 µM
IWQ Use Nav1.4 (µM) (IC50, IonWorks Quattro population patch clamp) [10]: > 50 µM
IWQ Use Nav1.5 (µM) (IC50, IonWorks Quattro population patch clamp) [7]: 33 µM
IWQ Use Nav1.7 (µM) (IC50, IonWorks Quattro population patch clamp) [8]: > 5 µM

D[Abu]LG[Nva]LRKCIPDNDKC[Abu]RPNLVCSRTHEWCKYVF (ends and bridges not checked) [[2-Abu2,17;Nva5;Leu6;Glu28]GpTx-1(1-34)]
IWQ Use Nav1.3 (µM) (IC50, IonWorks Quattro population patch clamp) [6]: > 5 µM
IWQ Use Nav1.4 (µM) (IC50, IonWorks Quattro population patch clamp) [10]: > 50 µM
IWQ Use Nav1.5 (µM) (IC50, IonWorks Quattro population patch clamp) [7]: > 50 µM
IWQ Use Nav1.7 (µM) (IC50, IonWorks Quattro population patch clamp) [8]: > 5 µM

B1: [Ala5;Leu6,26;Glu10;Atz(PEG11-((2-hydroxyethyl)thio)acetamide)13;Arg28]GpTx-1(1-34) (peptide)
peptide: DCLGALRKCEPD[Atz]([PEG11′-X2])DKCCRPNLVCSRLHRWCKYVF
modifications: ends and bridges not checked; also: printed as [Ala5;Leu6,26;Glu10;Atz(PEG11-((2-hydroxyethyl)thio)acetamide)13;Arg28]GpTx-1(1-34)
Nav1.4 Use IC50 (PatchXpress electrophysiology, inhibition of sodium current) [10]: > 10 µM
Nav1.5 Use IC50 (PatchXpress electrophysiology, inhibition of sodium current) [7]: > 10 µM
Nav1.7 Use IC50 (PatchXpress electrophysiology, inhibition of sodium current) [8]: 0.054 µM
